From publication PMC8038991, “R-catcher, a potent molecular tool to unveil the arginylome” (Cellular and Molecular Life Sciences: CMLS, 2021)

Tests used:
Assay in all cases: ITC; protein 0.05 mM, 4-mer peptide 1 mM as injectant, B buffer (50 mM Tris-HCl pH 7.5, 200 mM NaCl), 25 °C, Microcal Auto-ITC200; single site-binding model
[1] = molecular target: GST-ZZ_(122-175), wild type, bacterially expressed (human) (UniProt Q13501)
[2] = molecular target: purified N132D ZZ fragment p62 (122-175) of the ITC table (Fig. 3b) (human) (UniProt Q13501)
[3] = molecular target: purified wild type ZZ fragment p62 (122-175) of the ITC table (Fig. 3b) (human) (UniProt Q13501)

Binder | Kd [1] [µM] | Kd [2] [µM] | Kd [3] [µM]
YIFS [YIFS tetrapeptide (Nt-Tyr)] | 16.1 | 107 | 20.7
RIFS [RIFS tetrapeptide (Nt-Arg)] | 4.4 | 2.85 | 6.9
